Measured values reported in PMC6422423 (2019).
Where no end group is shown, it is not given here.

Target: gastrin-releasing peptide receptor (UniProt P30550 1-384)
Assay: competition with 125I-GRP

Sequence of gastrin-releasing peptide receptor (P30550 whole entry): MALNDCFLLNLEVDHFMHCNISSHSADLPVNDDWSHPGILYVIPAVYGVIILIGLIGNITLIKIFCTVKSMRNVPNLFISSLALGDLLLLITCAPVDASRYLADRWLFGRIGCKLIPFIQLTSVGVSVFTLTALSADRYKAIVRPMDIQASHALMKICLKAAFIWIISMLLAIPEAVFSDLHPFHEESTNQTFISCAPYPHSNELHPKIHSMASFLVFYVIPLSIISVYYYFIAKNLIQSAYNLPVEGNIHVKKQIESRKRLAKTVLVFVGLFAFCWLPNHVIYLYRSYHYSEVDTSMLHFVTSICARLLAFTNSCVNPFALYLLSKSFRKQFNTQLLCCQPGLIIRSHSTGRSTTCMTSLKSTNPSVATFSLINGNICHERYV

Binder	IC50
YKIKVNPRGNLWATGHFM (ends and bridges not checked) [neuromedin B, unlabeled ligand peptide of the radioligand binding assays]	151 nM
APLQPGGSPALTKIYPRGSHWAVGHLM (ends and bridges not checked) [gastrin-releasing peptide, unlabeled ligand peptide of the radioligand binding assays]	0.2 nM
